Source: patent US20140328753A1

Assays:
[1] = biological target: rabbit atheromatous protein extract; experiment: direct TR-FRET inhibition; six-fold excess of unlabeled atheromatous extract as competitor against biotinylated atheromatous extract, 16 h at 4 °C
[2] = biological target: unlabeled protein extract from untreated animals; experiment: direct TR-FRET inhibition; six-fold excess of unlabeled extract from untreated rabbits as competitor against biotinylated atheromatous extract, 16 h at 4 °C

Binder | inhibition of the DeltaF binding value [1] | inhibition of the DeltaF binding value [2]
I8.1 scFv antibody (scFv) scFv: EVQLVESGGSLVKPGGSLRLSCAASGFTFSNYSMNWVRQAPGKGLEWISSISGSSRYIYYADFVKGRFTISRDNATNSLYLQMNSLRAEDTAVYYCVRNSFYASWSKDYSMEIWGRGTLVTVSSGGGGSGGGGSGGGGSQSVLTQPASVSGSPGQSITISCAGTSSDVGGYNYVSWYQQHPGKAPKLMIYEDSKRPSGVSNRFSGSKSGNTASLTISGLQAEDEADYYCQSWASRINIFGGGTKLAV | 80% | 35%
H2.1 scFv antibody (scFv) scFv: EVQLVESGGSLVKPGGSLRLSCAASGFTFSNYSMNWVRQAPGKGLEWISSISGSSRYIYYADFVKGRFTISRDNATNSLYLQMNSLRAEDTAVYYCVRGGVDSSGDNCFDLWGRGTLVTVSSGGGGSGGGGSGGGGSQSVLTQPASVSGSPGQSITISCAGTSSDVGGYNYVSWYQQHPGKAPKLMIYEDSKRPSGVSNRFSGSKSGNTASLTISGLQAEDEADYYCTSYGSGATLVFGGGTKLAV | 75% | 50%
